Experimental findings from patent US7959916B2, “Negative immunomodulation of immune responses by ERp5” (Fred Hutchinson Cancer Research Center, priority 2007, dated 2011) are described below.

The test system of test [1] is sMICA shedding by Hela and A375 cells. Put plainly: sMICA shedding by tumor cell lines (ELISA for sMICA).
Test [2] deals with surface expression of MICA. Put plainly: MICA surface expression on tumor cell lines (flow cytometry). The note with it: tumor lines exposed to DTNB or PAO at titered non-toxic concentrations. On the technique in general: In flow cytometry, cells or beads pass a laser one at a time.
For test [3], the target named is T1, MICA (Homo sapiens, UniProt Q29983).
T1 sequence (Q29983 24-203): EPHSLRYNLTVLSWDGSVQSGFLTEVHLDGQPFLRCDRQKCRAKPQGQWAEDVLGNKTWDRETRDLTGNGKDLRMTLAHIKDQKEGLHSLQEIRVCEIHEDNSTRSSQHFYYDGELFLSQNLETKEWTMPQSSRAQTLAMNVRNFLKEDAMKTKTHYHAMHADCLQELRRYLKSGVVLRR
Put plainly: ERp5 activity assay on MICA substrates (non-reducing SDS-PAGE). The note with it: isolated α1α2 platform (residues 1-180). Type of test: biochemical.

In test [4] the target is T2, MICA (Homo sapiens, UniProt Q29983).
T2 sequence (Q29983 24-299): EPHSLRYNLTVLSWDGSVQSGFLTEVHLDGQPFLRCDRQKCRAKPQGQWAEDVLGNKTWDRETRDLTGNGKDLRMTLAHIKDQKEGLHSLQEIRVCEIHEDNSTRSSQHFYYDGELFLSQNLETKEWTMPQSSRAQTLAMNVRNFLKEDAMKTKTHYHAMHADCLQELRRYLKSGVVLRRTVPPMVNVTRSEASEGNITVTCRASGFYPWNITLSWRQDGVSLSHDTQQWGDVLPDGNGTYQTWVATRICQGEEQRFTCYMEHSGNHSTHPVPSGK
Described as above. Format: biochemical. The note with it: ectodomain MICA, RT, no reducing agents.

For test [5], the system named is Siderocalin and CD94-NKG2A. The experiment in a line: ERp5 activity assay on control proteins. The note with it: Siderocalin (intrachain) and CD94-NKG2A (intrachain and interchain) disulfide bonds. Type of test: biochemical.
The test system of test [6] is monocyte derived dendritic cells (mDC). The experiment in a line: Maturation marker expression on monocyte-derived dendritic cells (flow cytometry). Format: cell-based. The note with it: mDC matured with cytokine cocktail, soluble MICA 10 ng/ml. The procedure: Monocytes were enriched from normal peripheral blood mononuclear cells (PBMC) by plastic adherence and cultured under standard conditions in the presence of IL-4 and GM-CSF. Cells were harvested at 6 hour-intervals and stained with fluorescein isothiocyanate (FITC)-anti-CD83 or FITC-HLA-DR followed by saturating phycoerythrin (PE)-MICA tetramer concentrations or polyclonal rabbit anti-ERp5 and PE-goat anti-rabbit Ig. On day 6 of culture with IL-4/GM-CSF, mDC were matured (IL-1β, IL-6, TNFα, and PGE2) and MICA tetramer staining and Erp5 expression monitored for an additional 3 days. MICA tetramer was produced by ectodomain MICA protein expression in transfected 293T cells, protein purification from culture supernatant using Invitrogen technology, and BirA enzymatic biotinylation and conjugation with PE-streptavidin.
mDC were matured using standard cytokine cocktail (Il-1β, IL-6, TNFα, and PGE2) in the additional presence or absence of soluble MICA (10 ng/ml). Mature mDC were harvested after 24 to 48 hours and processed for standard flow cytometry of CD80 and CD83 expression. […] IL-6 contents in culture supernatants were measured by standard ELISA. […] After 72 hours, cells in wells were labeled with [^3H]thymidine for 24 hours and harvested for counting of incorporated radioactivity.

Test [7] relates to mDC and allogeneic T cells. Put plainly: Mixed-lymphocyte reaction, alloantigen presentation by mDC ([3H]thymidine incorporation). Format: cell-based. The note with it: MLR, soluble MICA 10 ng/ml, 72 h. The procedure:
mDC were matured using standard cytokine cocktail (Il-1β, IL-6, TNFα, and PGE2) in the additional presence or absence of soluble MICA (10 ng/ml). Mature mDC were harvested after 24 to 48 hours and processed for standard flow cytometry of CD80 and CD83 expression. For IL-6 secretion assays, 24 hour cytokine-matured mDC were washed, mixed with irradiated C1R-Neo (control), C1R-MICA or C1R-ULBP1 cells at a ratio of 2:1 and plated at 50,000 (experiment 1 and 2) or 200,000 mDC (experiment 3 and 4) per round-bottom 96-well in 200 μl AIM-V media with LPS (10 μg/ml). IL-6 contents in culture supernatants were measured by standard ELISA. The ability of mature mDC to present alloantigen in the presence or absence of soluble MICA was studied using standard mixed-lymphocyte reaction (MLR). Irradiated (3000 Rad) cytokine-matured mDC and allogeneic T cells were plated at various ratios (X-axis of bottom bar graph) with or without soluble MICA (10 ng/ml AIM-V) in round-bottom 96-well plates. After 72 hours, cells in wells were labeled with [^3H]thymidine for 24 hours and harvested for counting of incorporated radioactivity.

The subject of test [8] is PHA (or anti-CD3)-activated CD4 T cells. The experiment in a line: Cytokine production by activated CD4 T cells (17 multiplex cytokine analysis). The note with it: soluble MICA 10 ng/ml, 24 hour supernatants. Type of test: cell-based. The procedure:
Total PBMC from healthy donors were cultured for 48 hours with PHA (1 μg/ml) or on solid-phase anti-CD3 (25 ng/ml) and stained for standard three-color flow cytometry using combinations of directly conjugated anti-CD3, -CD4 and -CD8 mAbs followed by anti-ERp5 and PE-goat anti-rabbit Ig. For cytokine analyses, bulk NKG2D^+ and NKG2D^− T cell populations purified by magnetic sorting were plated on solid-phase monoclonal antibodies with or without soluble MICA (10 ng/ml). 24 hour culture supernatants were screened by 17 multiplex cytokine analysis.

The target in the next test is T3, ERp5 (Homo sapiens, UniProt Q15084).
T3 sequence (Q15084 20-440): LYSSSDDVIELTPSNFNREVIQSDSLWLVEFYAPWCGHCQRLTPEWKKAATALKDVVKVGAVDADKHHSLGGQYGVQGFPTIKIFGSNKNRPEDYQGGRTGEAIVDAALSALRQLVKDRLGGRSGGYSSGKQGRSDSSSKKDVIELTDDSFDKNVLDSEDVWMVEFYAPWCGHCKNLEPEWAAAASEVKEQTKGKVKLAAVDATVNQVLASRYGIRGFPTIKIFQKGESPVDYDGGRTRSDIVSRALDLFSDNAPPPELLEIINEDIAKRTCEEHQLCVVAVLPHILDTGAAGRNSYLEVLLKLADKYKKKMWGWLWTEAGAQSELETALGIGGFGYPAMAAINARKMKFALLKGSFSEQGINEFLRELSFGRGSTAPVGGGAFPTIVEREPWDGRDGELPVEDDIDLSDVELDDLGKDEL
The experiment in a line: MICA tetramer binding to NKG2D-negative tumor cells (flow cytometry). The note with it: U266, Hela, HCT116, Lovo and A375 cells, competition with unglycosylated protein.

The next test deals with ERp5-MICA complexes. Put plainly: Capturing of ERp5-MICA complexes by co-immunoprecipitation from TCA-treated Hela cells. Type of test: cell-based. The note with it: Hela cells grown 16 h with increasing concentrations. The text has this: Immunoprecipitations and sMICA cleavage.
The target of test [9] is T4, MICA (Homo sapiens, UniProt Q29983).
T4 sequence (Q29983 210-297): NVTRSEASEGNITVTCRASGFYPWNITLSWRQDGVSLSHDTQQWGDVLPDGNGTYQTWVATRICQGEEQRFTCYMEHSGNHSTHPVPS
The experiment in a line: ERp5 activity assay on MICA substrates (non-reducing SDS-PAGE). The note with it: isolated α3 domain (residues 187-274). Format: biochemical.

As for `O=C(O)c1cc(SSc2ccc([N+](=O)[O-])c(C(=O)O)c2)ccc1[N+](=O)[O-]` [DTNB, 5,5-dithiobis-(2-nitrobenzoic acid), reference compound], the “shedding of sMICA” value in test [1] (Hela and A375 cells, 24 h exposure, ELISA, dose-dependent) is “reduce shedding of sMICA”. Moreover, the “surface expression of MICA” value in [2] is given as “without affecting surface expression of MICA”. Regarding “ERp5: recombinant ERp5 (residues 1-421 of the mature protein) produced in bacteria”, the “activity on MICA α1α2 domain” value in the test with MICA [3] is given as “no activity”. Further, the “reduction of MICA disulfide bond” value with MICA [4] is listed as “gradual reduction of MICA”. The “reduction of unrelated proteins” value in test [5] is reported as “did not affect”.

B1: soluble MICA: soluble form of MHC class I-related chain A, NKG2D ligand binding ERp5 (protein)
chain: EPHSLRYNLTVLSWDGSVQSGFLTEVHLDGQPFLRCDRQKCRAKPQGQWAEDVLGNKTWDRETRDLTGNGKDLRMTLAHIKDQKEGLHSLQEIRVCEIHEDNSTRSSQHFYYDGELFLSQNLETKEWTMPQSSRAQTLAMNVRNFLKEDAMKTKTHYHAMHADCLQELRRYLKSGVVLRRTVPPMVNVTRSEASEGNITVTCRASGFYPWNITLSWRQDGVSLSHDTQQWGDVLPDGNGTYQTWVATRICQGEEQRFTCYMEHSGNHSTHPVPSGK
Take B1: the “expression of DC maturation markers (CD83; CD80)” value in test [6] was “diminished”. Moreover, the “ability of mDC to present alloantigen and stimulate T cells” value in test [7] was “reduced ability to present alloantigen and stimulate T cells”. The results for the “amounts of IL-1β, IL-17, G-CSF and MCP1” value in test [8] (NKG2D-CD4+ T cells) and in test [8] (activated NKG2D+CD4+ T cells) were “increased amounts” and “vastly increased”, respectively.

B2: rMICA: Non-glycosylated recombinant MICA expressed in bacteria (protein)
chain: EPHSLRYNLTVLSWDGSVQSGFLTEVHLDGQPFLRCDRQKCRAKPQGQWAEDVLGNKTWDRETRDLTGNGKDLRMTLAHIKDQKEGLHSLQEIRVCEIHEDNSTRSSQHFYYDGELFLSQNLETKEWTMPQSSRAQTLAMNVRNFLKEDAMKTKTHYHAMHADCLQELRRYLKSGVVLRRTVPPMVNVTRSEASEGNITVTCRASGFYPWNITLSWRQDGVSLSHDTQQWGDVLPDGNGTYQTWVATRICQGEEQRFTCYMEHSGNHSTHPVPSGK
With B2, in the test with ERp5, the “MICA tetramer binding to NKG2D- tumor cells” value is “inhibited”.

B3: dRNase: Denatured and reduced RNase A, excess substrate shifting ERp5 equilibrium towards the reduced state (protein, UniProt P61823 27-150, looked up)
Ribonuclease pancreatic: KETAAAKFERQHMDSSTSAASSSNYCNQMMKSRNLTKDRCKPVNTFVHESLADVQAVCSQKNVACKNGQTNCYQSYSTMSITDCRETGSSKYPNCAYKTTQANKHIIVACEGNPYVPVHFDASV
modifications: denatured and reduced
notes: Denatured and reduced RNase A, excess substrate shifting ERp5 equilibrium towards the reduced state
Turning to B3, the “ERp5 co-immunoprecipitating with MICA, emergence of sMICA” value in the test with ERp5-MICA complexes is recorded as “larger amounts of ERp5 co-immunoprecipitating with MICA”. Further, the sMICA shedding result in test [1] (Hela and A375 cell cultures treated with dRNase, 16 h) is “promotes sMICA shedding”.

B4: native RNase: native RNase A used as control for dRNase (protein, UniProt P61823 27-150, looked up)
Ribonuclease pancreatic: KETAAAKFERQHMDSSTSAASSSNYCNQMMKSRNLTKDRCKPVNTFVHESLADVQAVCSQKNVACKNGQTNCYQSYSTMSITDCRETGSSKYPNCAYKTTQANKHIIVACEGNPYVPVHFDASV
Turning to B4, in the test with ERp5-MICA complexes, the “ERp5 co-immunoprecipitating with MICA, emergence of sMICA” value is given as “None of those biochemical changes were observed”.

B5: C36S: C36S mutant of ERp5 fragment 1-118 (protein)
chain: LYSSSDDVIELTPSNFNREVIQSDSLWLVEFYAPWSGHCQRLTPEWKKAATALKDVVKVGAVDADKHHSLGGQYGVQGFPTIKIFGSNKNRPEDYQGGRTGEAIVDAALSALRQLVKD
modifications: left off: small tags and cut ends
As for B5, in the test with MICA [4], the “reduction of MICA disulfide bond” value was “no activity”.

B6: ERp51-118: recombinant N-terminal thioredoxin-like domain fragment of ERp5, residues 1-118 (protein)
chain: LYSSSDDVIELTPSNFNREVIQSDSLWLVEFYAPWCGHCQRLTPEWKKAATALKDVVKVGAVDADKHHSLGGQYGVQGFPTIKIFGSNKNRPEDYQGGRTGEAIVDAALSALRQLVKD
modifications: left off: small tags and cut ends
With B6, in the test with MICA [4], the “reduction of MICA disulfide bond” value is “partially reduced”.

B7: C39S: C39S mutant of ERp5 fragment 1-118 (protein)
chain: LYSSSDDVIELTPSNFNREVIQSDSLWLVEFYAPWCGHSQRLTPEWKKAATALKDVVKVGAVDADKHHSLGGQYGVQGFPTIKIFGSNKNRPEDYQGGRTGEAIVDAALSALRQLVKD
modifications: left off: small tags and cut ends
Regarding B7, the “reduction of MICA disulfide bond” value with MICA [4] is “formed a trapped disulfide-linked intermediate”. In addition, in the test with MICA [9], the “activity on MICA α3 domain” value is given as “reduces the MICA α3 disulfide bond”.
